In patent US20070082002A1 (IDEC PHARMACEUTICALS, published 2007):

Tests used:
[1] = target: T1, RSV fusion (F) protein, affinity purified from HEp-2 cells infected with the Long strain of RSV (respiratory syncytial virus, Long …, UniProt P12568 26-109; P12568 137-574); assay: ELISA, plate coated with purified F-protein, GAH IgG-HRP detection
T1 construct: mature; also called RSV F-protein; soluble F-protein

[2] = target: T1, RSV fusion (F) protein, affinity …; assay: titration micro calorimetry, RF-2 and F-protein in solution
[3] = target: F-protein of RSV RS 6556 (Type B clinical isolate) in infected VERO cells (respiratory syncytial virus, RS 6556 …); assay: cell-based or functional assay
[4] = target: F-protein of RSV RS Long (Type A prototype) in infected VERO cells (respiratory syncytial virus, Long …, UniProt P12568 26-574); assay: cell-based or functional assay
F-protein of RSV RS Long (Type A prototype) in infected VERO cells, sequence (P12568 26-574): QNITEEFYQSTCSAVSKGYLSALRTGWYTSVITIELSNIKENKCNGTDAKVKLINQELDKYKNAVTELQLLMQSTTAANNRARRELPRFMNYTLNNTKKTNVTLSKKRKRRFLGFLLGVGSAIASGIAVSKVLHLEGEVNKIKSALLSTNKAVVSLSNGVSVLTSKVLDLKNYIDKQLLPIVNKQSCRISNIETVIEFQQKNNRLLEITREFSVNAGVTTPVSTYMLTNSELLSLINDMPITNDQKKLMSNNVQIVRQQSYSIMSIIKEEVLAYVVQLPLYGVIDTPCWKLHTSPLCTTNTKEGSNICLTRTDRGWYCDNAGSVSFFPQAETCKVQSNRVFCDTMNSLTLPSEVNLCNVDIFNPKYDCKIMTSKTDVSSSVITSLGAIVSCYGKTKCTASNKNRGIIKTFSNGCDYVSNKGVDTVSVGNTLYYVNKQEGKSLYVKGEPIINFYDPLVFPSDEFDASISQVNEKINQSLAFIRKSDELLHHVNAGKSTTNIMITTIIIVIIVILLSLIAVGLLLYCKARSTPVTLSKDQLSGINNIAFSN

[5] = target: F-protein of RSV MR 144 (Type A) (respiratory syncytial virus, MR 144 …); assay: cell-based or functional assay
[6] = target: F-protein of RSV 18537 (Type B) (respiratory syncytial virus, strain …, UniProt P13843 26-574); assay: cell-based or functional assay
F-protein of RSV 18537 (Type B), sequence (P13843 26-574): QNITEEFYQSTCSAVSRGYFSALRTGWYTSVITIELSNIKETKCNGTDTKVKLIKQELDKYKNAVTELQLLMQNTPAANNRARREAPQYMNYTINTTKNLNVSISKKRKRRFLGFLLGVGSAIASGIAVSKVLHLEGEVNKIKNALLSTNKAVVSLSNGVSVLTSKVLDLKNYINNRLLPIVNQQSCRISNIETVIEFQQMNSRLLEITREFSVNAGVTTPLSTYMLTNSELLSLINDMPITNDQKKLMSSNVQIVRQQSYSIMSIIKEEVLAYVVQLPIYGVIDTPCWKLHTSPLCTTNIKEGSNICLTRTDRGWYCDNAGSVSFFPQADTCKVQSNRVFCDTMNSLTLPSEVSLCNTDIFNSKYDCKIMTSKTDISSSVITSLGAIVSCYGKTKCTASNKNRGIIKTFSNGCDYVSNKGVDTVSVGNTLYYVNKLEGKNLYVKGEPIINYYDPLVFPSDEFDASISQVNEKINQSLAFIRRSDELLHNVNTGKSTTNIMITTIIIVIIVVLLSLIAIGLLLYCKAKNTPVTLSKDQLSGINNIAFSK

[7] = target: T1, RSV fusion (F) protein, affinity …; assay: plasmon resonance on an IASYS machine, antibody bound covalently, F-protein in solution

T1 sequence (P12568 26-109, chain 1 of 2): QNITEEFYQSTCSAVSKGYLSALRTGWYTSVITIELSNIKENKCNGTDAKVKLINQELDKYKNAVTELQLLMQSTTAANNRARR
T1 sequence (P12568 137-574, chain 2 of 2): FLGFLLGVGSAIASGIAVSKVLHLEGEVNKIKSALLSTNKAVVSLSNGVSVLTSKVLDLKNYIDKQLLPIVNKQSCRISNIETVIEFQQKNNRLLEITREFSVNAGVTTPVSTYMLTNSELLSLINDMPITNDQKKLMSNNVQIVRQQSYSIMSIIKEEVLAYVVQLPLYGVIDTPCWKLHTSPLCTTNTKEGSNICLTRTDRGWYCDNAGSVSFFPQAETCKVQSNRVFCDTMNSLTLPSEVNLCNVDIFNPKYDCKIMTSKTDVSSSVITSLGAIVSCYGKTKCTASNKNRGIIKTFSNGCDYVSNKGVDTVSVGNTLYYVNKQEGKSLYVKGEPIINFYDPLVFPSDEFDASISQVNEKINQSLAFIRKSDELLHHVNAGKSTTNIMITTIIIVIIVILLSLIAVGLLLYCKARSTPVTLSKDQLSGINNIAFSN

Binder	EC50 [1] [µg/mL]	Kd [2] [nM]	Fusion Inhibition activity ED50 titer [3] [µg/mL]	Fusion Inhibition activity ED50 titer [4] [µg/mL]	Infection Neutralization Activity ED50 titer [5] [µg/mL]	Infection Neutralization Activity ED50 titer [6] [µg/mL]	Kd [7] [nM]
RF-2 human monoclonal antibody to RSV F-protein (antibody, human IgG1, V domains shown, Tested as natural human IgG1 kappa, protein A purified from supernatant of the tumor cell line from hu-SPL-SCID mouse #15; The early preparation held at least two antibody populations) VH: QVQLQESGPALVKPTQTLTLTCTFSGFSLSTRGMSVNWIRQPPGKALEWLARIDWDDDTFYSASLKTRLSISKDTSKNQVVLRMTNVDPVDTATYFCARASLYDSDSFYLFYHAYWGQGTVVTVSS VL: DIQMTQSPSSLSASVGDRVTITCRASQSIASYVNWYQQKPGKAPKVLIFASANLVSGVPSRFSGSGSGTVFTLTISNLQPEDFATYFCQQSYTNFSFGQGTKLEIK	0.001	2	0.4	3.3	0.008	0.012	
RF-1 human monoclonal antibody to RSV F-protein (antibody, human IgG1, V domains shown, Tested as natural human IgG1 kappa, protein A purified from supernatant of the EBV-positive tumor cell line from hu-SPL-SCID mouse #6) VH: QVQLQESGPVVVKPTETLTLTCTVSGFSLSNPRMGVTWIRQPPGKALEWLGNIFSSDEKSFSPSLKSRLTTSQDTSRSQVVLSLTNVDPVDTATYYCARVGLYDINAYYLYYLDYWGQGTLVTVSS VL: DIQMTQSPSSLSASVGDRVTITCRAGQRIASYLNWYQHKPGKAPKLLIYAGSNLHRGVPSRFSGGGSGTDFTLTINSLQPEDFATYYCQQAYSTPWTFGPGTKVEIK	0.0006		0.04	0.66	0.03	0.03	~0.1
